The test system of data set [1] is HeLa Kyoto. The experiment in a line: melting temperature (median over replicates), in situ; higher = more thermally stable.
Data set [2] has as its system HeLa Kyoto. The experiment in a line: solubility in G1/S (NP-40 vs SDS abundance) (log2 ratio); higher = more soluble. The note with it: cell cycle stage: G1/S.
Data set [3] relates to HeLa Kyoto. The data set is described as follows: thermal stability score vs G1/S (z-score of summed log2 fold changes over temperatures); higher = more thermally stable than in G1/S.
Data set [4] has as its system HeLa Kyoto. The data set is described as follows: solubility change mitosis vs G1/S (difference of NP-40 vs SDS log2 ratios) (log2 ratio difference); higher = more soluble in mitosis.
[5] abbreviates: cell cycle stage: early G1 (4.5 h after nocodazole release).
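Throughout, for melting temperature (median over replicates), in situ: HeLa Kyoto cells synchronized by double thymidine or nocodazole block, proteins quantified by TMT10plex mass spectrometry, three independent biological replicates.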
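Throughout, for solubility change mitosis vs G1/S (difference of NP-40 vs SDS log2 ratios): synchronized HeLa Kyoto cells (double thymidine block for G1/S, nocodazole release for mitosis), protein amounts in NP-40 versus SDS lysates quantified by mass spectrometry, three biological replicates.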
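Throughout, for solubility in G1/S (NP-40 vs SDS abundance): HeLa Kyoto cells arrested at G1/S by double thymidine block, proteins quantified by TMT10plex mass spectrometry in mild NP-40 versus SDS extracts, three biological replicates.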
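Throughout, for thermal stability score vs G1/S (z-score of summed log2 fold changes over temperatures): synchronized HeLa Kyoto cells, proteins quantified by TMT10plex mass spectrometry, three biological replicates, mitosis taken 0.5 h after nocodazole release, G1/S directly after double thymidine block.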

Regarding “MAQKPLRLLACGDVEGKFDILFNRVQAIQKKSGNFDLLLCVGNFFGSTQDAEWEEYKTGIKKAPIQTYVLGANNQETVKYFQDADGCELAENITYLGRKGIFTGSSGLQIVYLSGTESLNEPVPGYSFSPKDVSSLRMMLCTTSQFKGVDILLTSPWPKCVGNFGNSSGEVDTKKCGSALVSSLATGLKPRYHFAALEKTYYERLPYRNHIILQENAQHATRFIALANVGNPEKKKYLYAFSIVPMKLMDAAELVKQPPDVTENPYRKSGQEASIGKQILAPVEESACQFFFDLNEKQGRKRSSTGRDSKSSPHPKQPRKPPQPPGPCWFCLASPEVEKHLVVNIGTHCYLALAKGGLSDDHVLILPIGHYQSVVELSAEVVEEVEKYKATLRRFFKSRGKWCVVFERNYKSHHLQLQVIPVPISCSTTDDIKDAFITQAQEQQIELLEIPEHSDIKQIAQPGAAYFYVELDTGEKLFHRIKKNFPLQFGREVLASEAILNVPDKSDWRQCQISKEDEETLARRFRKDFEPYDFTLDD [CWF19L1]”, the values for the melting temperature in data set [1] (cell cycle stage: G1/S) and in data set [1] (cell cycle stage: mitosis) were 50.4 °C and 50.7 °C, respectively. For the same sequence, the “solubility in G1/S (log2)” value in data set [2] stood at 0.0176. Moreover, the thermal stability score in data set [3] (setting [5]) was 0.0624; in data set [3] (cell cycle stage: mitosis), 0.97. Besides, the “solubility change mitosis (log2)” value in data set [4] is -0.143.
“MAAAAAAVGPGAGGAGSAVPGGAGPCATVSVFPGARLLTIGDANGEIQRHAEQQALRLEVRAGPDSAGIALYSHEDVCVFKCSVSRETECSRVGKQSFIITLGCNSVLIQFATPNDFCSFYNILKTCRGHTLERSVFSERTEESSAVQYFQFYGYLSQQQNMMQDYVRTGTYQRAILQNHTDFKDKIVLDVGCGSGILSFFAAQAGARKIYAVEASTMAQHAEVLVKSNNLTDRIVVIPGKVEEVSLPEQVDIIISEPMGYMLFNERMLESYLHAKKYLKPSGNMFPTIGDVHLAPFTDEQLYMEQFTKANFWYQPSFHGVDLSALRGAAVDEYFRQPVVDTFDIRILMAKSVKYTVNFLEAKEGDLHRIEIPFKFHMLHSGLVHGLAFWFDVAFIGSIMTVWLSTAPTEPLTHWYQVRCLFQSPLFAKAGDTLSGTCLLIANKRQSYDISIVAQVDQTGSKSSNLLDLKNPFFRYTGTTPSPPPGSHYTSPSENMWNTGSTYNLSSGMAVAGMPTAYDLSSVIASGSSVGHNNLIPLANTGIVNHTHSRMGSIMSTGIVQGSSGAQGSGGGSTSAHYAVNSQFTMGGPAISMASPMSIPTNTMHYGS [CARM1]”: the melting temperature was found to be 56 °C in data set [1] (cell cycle stage: G1/S) and 56.3 °C in data set [1] (cell cycle stage: mitosis). Besides, in data set [2], the “solubility in G1/S (log2)” value is -0.0215. For the same sequence, the thermal stability score in data set [3] (setting [5]) is -1.1; in data set [3] (cell cycle stage: mitosis) it was -1.42. The “solubility change mitosis (log2)” value in data set [4] is -0.216.
As for “MKRPKLKKASKRMTCHKRYKIQKKVREHHRKLRKEAKKRGHKKPRKDPGVPNSAPFKEALLREAELRKQRLEELKQQQKLDRQKELEKKRKLETNPDIKPSNVEPMEKEFGLCKTENKAKSGKQNSKKLYCQELKKVIEASDVVLEVLDARDPLGCRCPQVEEAIVQSGQKKLVLILNKSDLVPKENLESWLNYLKKELPTVVFRASTKPKDKGKITKRVKAKKNAAPFRSEVCFGKEGLWKLLGGFQETCSKAIRVGVIGFPNVGKSSIINSLKQEQMCNVGVSMGLTRSMQVVPLDKQITIIDSPSFIVSPLNSSSALALRSPASIEVVKPMEAASAILSQADARQVVLKYTVPGYRNSLEFFTVLAQRRGMHQKGGIPNVEGAAKLLWSEWTGASLAYYCHPPTSWTPPPYFNESIVVDMKSGFNLEELEKNNAQSIRAIKGPHLANSILFQSSGLTNGIIEEKDIHEELPKRKERKQEEREDDKDSDQETVDEEVDENSSGMFAAEETGEALSEETTAGEQSTRSFILDKIIEEDDAYDFSTDYV [GNL3]”, the results for the melting temperature in data set [1] (cell cycle stage: G1/S) and in data set [1] (cell cycle stage: mitosis) were 45.3 °C and 50.2 °C, respectively. Besides, the “solubility in G1/S (log2)” value in data set [2] was -1.72. The thermal stability score in data set [3] (setting [5]) stood at 5.07; in data set [3] (cell cycle stage: mitosis), 8.85. The “solubility change mitosis (log2)” value in data set [4] turned out to be 0.867.
Turning to “MLFYSFFKSLVGKDVVVELKNDLSICGTLHSVDQYLNIKLTDISVTDPEKYPHMLSVKNCFIRGSVVRYVQLPADEVDTQLLQDAARKEALQQKQ [LSM2]”, the results for the melting temperature in data set [1] (cell cycle stage: G1/S) and in data set [1] (cell cycle stage: mitosis) were 59.9 °C and 57.5 °C, respectively. Besides, the “solubility in G1/S (log2)” value in data set [2] was -0.0676. Moreover, the thermal stability score in data set [3] (setting [5]) was -1.17; in data set [3] (cell cycle stage: mitosis), -1.99. Further, in data set [4], the “solubility change mitosis (log2)” value was 0.0659.
With “MSGGSADYNREHGGPEGMDPDGVIESNWNEIVDNFDDMNLKESLLRGIYAYGFEKPSAIQQRAIIPCIKGYDVIAQAQSGTGKTATFAISILQQLEIEFKETQALVLAPTRELAQQIQKVILALGDYMGATCHACIGGTNVRNEMQKLQAEAPHIVVGTPGRVFDMLNRRYLSPKWIKMFVLDEADEMLSRGFKDQIYEIFQKLNTSIQVVLLSATMPTDVLEVTKKFMRDPIRILVKKEELTLEGIKQFYINVEREEWKLDTLCDLYETLTITQAVIFLNTRRKVDWLTEKMHARDFTVSALHGDMDQKERDVIMREFRSGSSRVLITTDLLARGIDVQQVSLVINYDLPTNRENYIHRIGRGGRFGRKGVAINFVTEEDKRILRDIETFYNTTVEEMPMNVADLI [EIF4A2]”, the melting temperature in data set [1] (cell cycle stage: G1/S) came to 52.1 °C; in data set [1] (cell cycle stage: mitosis) it was 51.5 °C. Further, the “solubility in G1/S (log2)” value in data set [2] turned out to be 0.106. Also, the thermal stability score in data set [3] (setting [5]) is -0.202; in data set [3] (cell cycle stage: mitosis) it was -1.09. Moreover, in data set [4], the “solubility change mitosis (log2)” value was -0.2.

For the origin of these results see the supplement of paper PMC5998384.
